# Assay results taken from publication PMC9482650, “Quantitative fragmentomics allow affinity mapping of interactomes” (Nature Communications, 2022).
# T1: APBA1_1, Q02410
# T1 sequence (Q02410 651-752, limits assumed, looked up): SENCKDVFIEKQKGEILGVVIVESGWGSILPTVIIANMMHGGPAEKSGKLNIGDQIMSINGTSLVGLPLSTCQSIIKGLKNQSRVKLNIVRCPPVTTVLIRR
# T2: APBA2_2, Q99767
# T2 sequence (Q99767 654-744, limits assumed, looked up): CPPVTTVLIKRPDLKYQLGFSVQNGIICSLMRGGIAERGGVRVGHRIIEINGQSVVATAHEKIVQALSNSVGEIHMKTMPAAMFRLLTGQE
# T3: RADIL, Q96JH8
# T3 sequence (Q96JH8 971-1071, limits assumed, looked up): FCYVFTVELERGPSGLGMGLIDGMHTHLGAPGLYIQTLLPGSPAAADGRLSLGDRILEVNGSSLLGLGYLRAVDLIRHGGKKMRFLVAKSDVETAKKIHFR
# T4: ARHGEF11, O15085
# T4 sequence (O15085 42-136, limits assumed, looked up): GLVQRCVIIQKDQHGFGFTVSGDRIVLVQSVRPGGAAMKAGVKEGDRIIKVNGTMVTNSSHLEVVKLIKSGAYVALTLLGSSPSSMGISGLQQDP
# T5: MPDZ_5, O75970
# T5 sequence (O75970 695-796, limits assumed, looked up): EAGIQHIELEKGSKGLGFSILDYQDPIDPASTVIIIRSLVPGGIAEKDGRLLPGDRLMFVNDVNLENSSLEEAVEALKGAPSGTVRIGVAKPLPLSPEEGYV
# T6: DLG3_1, Q92796
# T6 sequence (Q92796 125-227, limits assumed, looked up): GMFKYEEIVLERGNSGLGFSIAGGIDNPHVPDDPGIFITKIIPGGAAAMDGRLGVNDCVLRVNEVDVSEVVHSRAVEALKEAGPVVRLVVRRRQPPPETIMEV
# T7: TX1BP3, O14907
# T7 sequence (O14907 10-122, limits assumed, looked up): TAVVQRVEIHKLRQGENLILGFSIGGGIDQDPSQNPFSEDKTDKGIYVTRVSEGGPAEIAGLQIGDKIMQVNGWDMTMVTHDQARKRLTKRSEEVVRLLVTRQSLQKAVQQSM
# T8: SNTB1, Q13884
# T8 sequence (Q13884 107-205, limits assumed, looked up): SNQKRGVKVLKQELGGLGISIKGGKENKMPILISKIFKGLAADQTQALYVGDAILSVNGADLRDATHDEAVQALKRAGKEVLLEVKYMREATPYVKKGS
# T9: MPP2, Q14168
# T9 sequence (Q14168 180-250, limits assumed, looked up): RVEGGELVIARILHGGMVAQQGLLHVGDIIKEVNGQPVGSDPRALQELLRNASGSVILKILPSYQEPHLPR
# T10: GRIP1_2, Q9Y3R0
# T10 sequence (Q9Y3R0 145-248, limits assumed, looked up): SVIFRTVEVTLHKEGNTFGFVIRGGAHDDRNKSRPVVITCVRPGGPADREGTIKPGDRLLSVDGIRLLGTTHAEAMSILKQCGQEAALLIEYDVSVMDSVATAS
# T11: CARD11, Q9BXL7
# T11 sequence (Q9BXL7 662-765, limits assumed, looked up): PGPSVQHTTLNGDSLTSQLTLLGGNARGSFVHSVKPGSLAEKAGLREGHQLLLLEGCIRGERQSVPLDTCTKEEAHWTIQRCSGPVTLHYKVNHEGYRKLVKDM
# T12: LNX2_2, Q8N448
# T12 sequence (Q8N448 334-432, limits assumed, looked up): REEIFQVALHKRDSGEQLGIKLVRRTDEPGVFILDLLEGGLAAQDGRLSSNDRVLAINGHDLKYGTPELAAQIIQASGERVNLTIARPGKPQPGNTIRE
# Assays:
# Test in all cases: holdup assay
# Set-up in all cases: key: below the threshold = too weak to quantify, mostly under pKd 3.1 to 4
# Conditions in all cases: plain residues with an end cap or a label only (N-terminal biotin on a linker: ado-ado)
# AHNAK1, Q09666 = biological target: AHNAK1, Q09666
# LAP2, Q96RT1 = biological target: LAP2, Q96RT1
# MAGI3_2, Q5TCQ9 = biological target: MAGI3_2, Q5TCQ9
# DLG1_3, Q12959 = biological target: DLG1_3, Q12959
# APBA1_1, Q02410 = biological target: T1, APBA1_1, Q02410
# Inadl_10, Q8NI35 = biological target: Inadl_10, Q8NI35
# APBA2_2, Q99767 = biological target: T2, APBA2_2, Q99767
# RADIL, Q96JH8 = biological target: T3, RADIL, Q96JH8
# MAGI2_4, Q86UL8 = biological target: MAGI2_4, Q86UL8
# LNX1_2, Q8TBB1 = biological target: LNX1_2, Q8TBB1
# DLG2_3, Q15700 = biological target: DLG2_3, Q15700
# ARHGEF11, O15085 = biological target: T4, ARHGEF11, O15085
# MPDZ_5, O75970 = biological target: T5, MPDZ_5, O75970
# TJP1_2, Q07157 = biological target: TJP1_2, Q07157
# DLG3_1, Q92796 = biological target: T6, DLG3_1, Q92796
# TX1BP3, O14907 = biological target: T7, TX1BP3, O14907
# SNTB1, Q13884 = biological target: T8, SNTB1, Q13884
# DLG1_1, Q12959 = biological target: DLG1_1, Q12959
# DLG4_2, P78352 = biological target: DLG4_2, P78352
# MPP2, Q14168 = biological target: T9, MPP2, Q14168
# TJP2_1, Q9UDY2 = biological target: TJP2_1, Q9UDY2
# GRIP1_2, Q9Y3R0 = biological target: T10, GRIP1_2, Q9Y3R0
# CARD11, Q9BXL7 = biological target: T11, CARD11, Q9BXL7
# PICK1, Q9NRD5 = biological target: PICK1, Q9NRD5
# PDZRN4_1, Q6ZMN7 = biological target: PDZRN4_1, Q6ZMN7
# LNX2_2, Q8N448 = biological target: T12, LNX2_2, Q8N448
# Chain of MAGI2_4, Q86UL8 (Q86UL8 772-865): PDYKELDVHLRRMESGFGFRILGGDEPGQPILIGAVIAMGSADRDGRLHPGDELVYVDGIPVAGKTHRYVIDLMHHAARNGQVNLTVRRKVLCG
# Chain of PICK1, Q9NRD5 (Q9NRD5 17-115): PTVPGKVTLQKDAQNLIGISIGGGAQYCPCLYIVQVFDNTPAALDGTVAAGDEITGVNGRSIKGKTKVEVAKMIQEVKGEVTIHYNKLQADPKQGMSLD
# Chain of AHNAK1, Q09666 (Q09666 4-100): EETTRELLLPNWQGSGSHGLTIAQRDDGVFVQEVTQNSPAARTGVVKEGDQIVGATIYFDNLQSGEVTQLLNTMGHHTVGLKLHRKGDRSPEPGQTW
# Chain of TJP1_2, Q07157 (Q07157 181-274): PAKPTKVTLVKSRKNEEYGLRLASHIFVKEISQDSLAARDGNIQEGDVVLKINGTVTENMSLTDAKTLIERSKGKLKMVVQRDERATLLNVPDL
# Chain of PDZRN4_1, Q6ZMN7 (Q6ZMN7 213-318): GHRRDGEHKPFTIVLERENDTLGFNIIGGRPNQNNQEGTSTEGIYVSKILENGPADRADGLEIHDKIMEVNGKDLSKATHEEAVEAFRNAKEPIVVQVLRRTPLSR
# Chain of MAGI3_2, Q5TCQ9 (Q5TCQ9 398-503): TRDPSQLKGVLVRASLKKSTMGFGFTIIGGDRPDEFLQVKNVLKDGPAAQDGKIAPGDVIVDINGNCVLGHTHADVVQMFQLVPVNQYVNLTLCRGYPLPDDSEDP
# Chain of DLG4_2, P78352 (P78352 155-259): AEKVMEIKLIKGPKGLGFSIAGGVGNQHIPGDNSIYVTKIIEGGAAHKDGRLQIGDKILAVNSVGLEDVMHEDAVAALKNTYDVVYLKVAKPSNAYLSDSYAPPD
# Chain of TJP2_1, Q9UDY2 (Q9UDY2 24-128): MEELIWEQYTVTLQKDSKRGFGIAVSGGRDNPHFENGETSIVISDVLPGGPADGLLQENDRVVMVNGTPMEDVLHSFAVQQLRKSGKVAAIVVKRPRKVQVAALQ
# Chain of Inadl_10, Q8NI35 (Q8NI35 1673-1763): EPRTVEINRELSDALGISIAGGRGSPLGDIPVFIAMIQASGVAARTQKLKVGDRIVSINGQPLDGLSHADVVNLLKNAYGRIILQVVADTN
# Chain of LNX1_2, Q8TBB1 (Q8TBB1 371-470): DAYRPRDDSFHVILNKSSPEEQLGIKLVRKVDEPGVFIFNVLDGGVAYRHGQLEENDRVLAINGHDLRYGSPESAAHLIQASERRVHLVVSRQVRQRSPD
# Chain of LAP2, Q96RT1 (Q96RT1 other isoform, or with tags, fused parts or gaps): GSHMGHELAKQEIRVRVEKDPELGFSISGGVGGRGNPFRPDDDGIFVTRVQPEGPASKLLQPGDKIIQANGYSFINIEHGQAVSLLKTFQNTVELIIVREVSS
Binder,"pKd (AHNAK1, Q09666)","pKd (LAP2, Q96RT1)","pKd (MAGI3_2, Q5TCQ9)","pKd (DLG1_3, Q12959)","pKd (APBA1_1, Q02410)","pKd (Inadl_10, Q8NI35)","pKd (APBA2_2, Q99767)","pKd (RADIL, Q96JH8)","pKd (MAGI2_4, Q86UL8)","pKd (LNX1_2, Q8TBB1)","pKd (DLG2_3, Q15700)","pKd (ARHGEF11, O15085)","pKd (MPDZ_5, O75970)","pKd (TJP1_2, Q07157)","pKd (DLG3_1, Q92796)","pKd (TX1BP3, O14907)","pKd (SNTB1, Q13884)","pKd (DLG1_1, Q12959)","pKd (DLG4_2, P78352)","pKd (MPP2, Q14168)",also measured
"LPHGHSTTRV [NLGN4X, Q8N0W4]",below the threshold,3.67,5.19,4.24,below the threshold,below the threshold,below the threshold,3.7,3.91,3.54,4.42,4.04,below the threshold,below the threshold,below the threshold,below the threshold,4.27,3.82,3.97,below the threshold,"pKd (TJP2_1, Q9UDY2): 4.04; pKd (GRIP1_2, Q9Y3R0): below the threshold; pKd (CARD11, Q9BXL7): below the threshold; pKd (PICK1, Q9NRD5): 4.27; pKd (PDZRN4_1, Q6ZMN7): below the threshold; pKd (LNX2_2, Q8N448): 3.8"
"YYKRPVQEWV [MMP24, Q9Y5R2]",below the threshold,4.51,3.85,below the threshold,3.48,below the threshold,below the threshold,5.63,4.09,3.71,3.7,4.3,4.03,4.1,below the threshold,3.87,below the threshold,below the threshold,4.03,below the threshold,"pKd (TJP2_1, Q9UDY2): 6.12; pKd (GRIP1_2, Q9Y3R0): below the threshold; pKd (CARD11, Q9BXL7): below the threshold; pKd (PICK1, Q9NRD5): below the threshold; pKd (PDZRN4_1, Q6ZMN7): below the threshold; pKd (LNX2_2, Q8N448): 4.86"
"PDGQCTVTEV [RNF146, Q9NTX7]",below the threshold,4.22,4.21,below the threshold,below the threshold,3.58,below the threshold,4.62,4.38,3.99,3.68,5.09,below the threshold,below the threshold,3.87,4.78,4.37,4.53,5.07,below the threshold,"pKd (TJP2_1, Q9UDY2): below the threshold; pKd (GRIP1_2, Q9Y3R0): below the threshold; pKd (CARD11, Q9BXL7): below the threshold; pKd (PICK1, Q9NRD5): below the threshold; pKd (PDZRN4_1, Q6ZMN7): below the threshold; pKd (LNX2_2, Q8N448): 5.08"
"SKSNFGSEPL [KIF17, Q9P2E2]",below the threshold,below the threshold,below the threshold,below the threshold,below the threshold,below the threshold,below the threshold,below the threshold,below the threshold,below the threshold,below the threshold,below the threshold,below the threshold,below the threshold,below the threshold,5.05,below the threshold,below the threshold,below the threshold,below the threshold,"pKd (TJP2_1, Q9UDY2): below the threshold; pKd (GRIP1_2, Q9Y3R0): below the threshold; pKd (CARD11, Q9BXL7): below the threshold; pKd (PICK1, Q9NRD5): below the threshold; pKd (PDZRN4_1, Q6ZMN7): below the threshold; pKd (LNX2_2, Q8N448): below the threshold"

# More lines, main results first:
"pKd (AHNAK1, Q09666)","pKd (LAP2, Q96RT1)","pKd (MAGI3_2, Q5TCQ9)","pKd (DLG1_3, Q12959)","pKd (APBA1_1, Q02410)","pKd (Inadl_10, Q8NI35)","pKd (APBA2_2, Q99767)","pKd (RADIL, Q96JH8)","pKd (MAGI2_4, Q86UL8)","pKd (LNX1_2, Q8TBB1)","pKd (DLG2_3, Q15700)","pKd (ARHGEF11, O15085)","pKd (MPDZ_5, O75970)","pKd (TJP1_2, Q07157)","pKd (DLG3_1, Q92796)","pKd (TX1BP3, O14907)","pKd (SNTB1, Q13884)","pKd (DLG1_1, Q12959)","pKd (DLG4_2, P78352)","pKd (MPP2, Q14168)",Binder,also measured
below the threshold,below the threshold,below the threshold,below the threshold,below the threshold,below the threshold,below the threshold,below the threshold,below the threshold,below the threshold,below the threshold,3.7,below the threshold,below the threshold,below the threshold,below the threshold,below the threshold,below the threshold,below the threshold,below the threshold,"DTTVPESEDL [MYOZ2, Q9NPC6]","pKd (TJP2_1, Q9UDY2): below the threshold; pKd (GRIP1_2, Q9Y3R0): below the threshold; pKd (CARD11, Q9BXL7): below the threshold; pKd (PICK1, Q9NRD5): below the threshold; pKd (PDZRN4_1, Q6ZMN7): below the threshold; pKd (LNX2_2, Q8N448): below the threshold"
below the threshold,3.66,5.74,4.54,below the threshold,below the threshold,below the threshold,3.94,4.19,3.92,5,4.45,below the threshold,below the threshold,3.84,4.53,3.64,4.42,5.08,below the threshold,"SAKVRTVTSV [RASL11B, Q9BPW5]","pKd (TJP2_1, Q9UDY2): 4.14; pKd (GRIP1_2, Q9Y3R0): below the threshold; pKd (CARD11, Q9BXL7): below the threshold; pKd (PICK1, Q9NRD5): below the threshold; pKd (PDZRN4_1, Q6ZMN7): below the threshold; pKd (LNX2_2, Q8N448): 4.9"
